The values that follow come from paper PMC7885266.

In general, stoichiometry N refers to the number of molecules, sites or subunits per partner or assembly.

The test concerns the target 3TBP-CTPR6-foldon. Briefly: co-sedimentation; co-precipitation assay: 10 μM hTNKS2 ARC1–3 mixed with an equal volume of CTPR protein (fixed or increasing concentrations) in 50 mM Tris-HCl, 150 mM NaCl, 0.5 mM TCEP, pH 7.3; 1 h at room temperature, 20 000g 30 min; supernatant and pellet on SDS-PAGE, band densities give the stoichiometry in the pellet.

B1: Tankyrase-2 Ankyrin Repeat Clusters 1-3 (residues 2-485) (domain or fragment)
chain: SGRRCAGGGAACASAAAEAVEPAARELFEACRNGDVERVKRLVTPEKVNSRDTAGRKSTPLHFAAGFGRKDVVEYLLQNGANVQARDDGGLIPLHNACSFGHAEVVNLLLRHGADPNARDNWNYTPLHEAAIKGKIDVCIVLLQHGAEPTIRNTDGRTALDLADPSAKAVLTGEYKKDELLESARSGNEEKMMALLTPLNVNCHASDGRKSTPLHLAAGYNRVKIVQLLLQHGADVHAKDKGDLVPLHNACSYGHYEVTELLVKHGACVNAMDLWQFTPLHEAASKNRVEVCSLLLSYGADPTLLNCHNKSAIDLAPTPQLKERLAYEFKGHSLLQAAREADVTRIKKHLSLEMVNFKHPQTHETALHCAAASPYPKRKQICELLLRKGANINEKTKEFLTPLHVASEKAHNDVVEVVVKHEAKVNALDNLGQTSLHRAAYCGHLQTCRLLLSYGCDPNIISLQGFTALQMGNENVQQLLQEGI
In turn, B1 displayed a stoichiometry N of 2.
